According to the DeepSol protein solubility set:

Test: soluble on expression in E. coli; label from the status in PepcDB or PDB records

Soluble on expression in E. coli, not soluble:
MPKINTSSSGWLADISLFYEKRGTNTKLVHREQVGPLMVQRPFYPETGIAHTYLLHPPGGVVGGDQLNINIHVSPQAHSLLTTPGATKFYRSSGATSSQTQNLTVESDGFLEWLPQENIFFPDSQAQLKTQVELHKNAHFIGWEMNCFGRPVLDEIFENGFVTGRTNIKVDDQLLLSESMYIDSIDEIKHAAGMRHYPMLGNLYIYPASEALEEKLRTLIDENFHEQPELFGSSNPICGITEIDGLLVIRYLGHQTEPMMACFSTLWQHTRQHWLGKLPEVPRIWATLEHHHHHH
GPGSMADNEEVPPSGPRMTREETDELVRRLYDQQMERAARREEERQRQLARPFCSSRRIKKDEEENLVRRIYDVQRERFQQSKEERERRLTLELQSKDKKLPESEIQDQVDRIYNQEVAKSKARREELQKRYLPEVPPKTIGKKQLKESVERLFRVDYVKRDEELFKKHVYPYDPPTTKISRTDVEAMANRLSRRGS
MTDQMRDMIAQLMGSQHVDNKEKPSMPFDHHSVCRAFLLGVCPHDMVPDSRLQNVVSCRKVHEPAHKADYERAQKEKDHFYDVDAFEIIEHAVHLVDIEIAKVREKLEDDVKTQTSQAADSKAKQVAEIEEKIAKNVDDIEKLGNEGKIEESMKLHKYVEELREKIQEIEDSQTEVKTAGPGSNSAKLRVCEDCGAQLNITDHESRIADHYNGKMHIGMVETRETYLKMKETIDERRKEREEKLGSQRGYQRRESYGRRDRGGDRGEYRGDRDRDRRNRDRSRSRDRSYRRDDRGDRRYDRDNRDRRDRDRRY
MRLSFRTLQRRNALGDAPRHRSAQRRAVKTGRRASRTACDAERRTIVERAWHDSLEHHHHHH
MGSDKIHHHHHHMNAPAGGLSPALTPEAVADTTAMATETHILNPRFYTTDFDELDRVDVTPVRKDWDALIAEMKADPNKAHFKKTEAWDRIDWDGMDPALRVEFIDFLVSSCTAEFSGCVLYKEMKRRGSNPDIRELFNYMARDEARHAGFINDALREAGVAVNLGFLTKAKKYTYFRPKFIYYATYLSEKIGYARYITIYRHLEANPEHRFHPIFKWFKEWCNDEFRHGEAFALLMKTDPKLTDTTVNRLWIRFFLTAVYSTMWVRDHARPEFHKALGVDIDWYDQEVYRKTSEIARQIFPVELDIDHPRWKPALRRMNEAFLRIDRGTRRGGIAGRLEKALGGAQALAAFVSLYTIPVRTHTLPENVRLEPSY
MRIHILGICGTFMGGLAMLARSLGHEVTGSDANVYPPMSTLLEKQGIDLIQGYDASQLDPQPDLVIIGNAMTRGNPCVEAVLEKNIPFMSGPQWLHDFVLRDRWVLAVAGTHGKTTTAGMATWILEACGYKPGFVIGGVPGNFEVSARLGESPFFVIEADEYDCAFFDKRSKFVHYCPRTLILNNLEFDHADIFDDLKAIQKQFHHLVRIVPGQGRIIWPENDINLKQTMALGCWSEQELVGEQGHWQAKKLTTDASEWEVWLDGEKVGDVKWGLVGEHNMHNGLMAIAAARHVGVAPAEAASALGSFINARRRLELRGEANGVTVYDDFAHHPTAILATLAALRGKVGGTARIIAVLEPRSNTMKMGLCKDDLAPSLGRADEVFLLQPPHIPWQVAEVAEACVQPAHWSGDVDTLAEMVVKTAQPGDHILVMSNGGFGGIHQKLLDGLAKKAQNVTAY

Soluble on expression in E. coli, soluble:
MSLGKEGLERLVYMVDRSDSLSLLQERIDSIEVVAPQVFSFTLEGTVYGEVDPRIIALAKERGKKLMPLVMNENFEKEKIKAFLANPKAQERLIGSLIKIALKEGFGGWQLDFEHLGITSKEAYTQLVRQLYARLKEHHLSLSIAVVPPRGEEPKNAYGAKVFEDWVSPYDLKALAEHSDFLTLMAYDQHTGGSTPGPIASRAWVEGIIQEALIWVPKEKLSLGIPLYSRLWHAGIKEEKMRGVAKSLTFAGAMDWLERQGAETLWLERDGVKWAMGERGGVKEYLFMEEARSLALKVELAKRYGLRGISLWRLGQEDPRIWDELEGHHHHHH
MGDDEARSWIRGDETAKQMLSRVLKDRAFLLIPPLHRVPLRAGNVVEITGASTSAKTQILIQAAISCILPKTWNGIHYGGLGKLVLFLDLDCRFDVLRLSQMLKHRLLQANWLGNGAWWQLEESNVKSCKSAEEKTKTVFDEELYASCMKRFLYVRCYDSLELLSSLKTLHYRIQQQEACGSQVGVLMIDSIGAFHWTDRLSSSLALETHNRKSLSLTNVVETIVQELKKLLLVHSLVVLATKGTIYEEKYPANENNRKVSSNDHFSGNVASKAQQPPFREFMPSSWQAFVTHKIIIRKSADYQSLQTGQQNLLAYSLEWLQPQLSRIDRFIVDDVRKLTTIKPFYSKLLLIYIVIPASSSHAVWYCHCLVT
